Bounds are passed on as bounds.

The assay has as its target CCR5 (UniProt P51681). Put plainly: cell-based or functional assay.
UniProt P51681, sequence (P51681 whole entry, the tested form may be a part): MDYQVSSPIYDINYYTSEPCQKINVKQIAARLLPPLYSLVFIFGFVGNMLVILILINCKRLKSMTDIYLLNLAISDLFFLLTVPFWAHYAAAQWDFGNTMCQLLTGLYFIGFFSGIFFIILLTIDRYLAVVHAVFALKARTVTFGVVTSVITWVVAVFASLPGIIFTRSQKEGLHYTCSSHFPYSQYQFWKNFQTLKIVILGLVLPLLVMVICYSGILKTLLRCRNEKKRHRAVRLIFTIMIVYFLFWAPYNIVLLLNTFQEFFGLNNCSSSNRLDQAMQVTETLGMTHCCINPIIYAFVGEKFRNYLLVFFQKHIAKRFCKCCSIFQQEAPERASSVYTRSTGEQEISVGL
The substance “n-nonanoyl-RANTES (2-68), CH3-(CH2)7-C(O)-RANTES (2-68) (from UniProt P13501 25-91) (ligand)” showed an Average infectivity IC50 (cell-free viral infection assay) of 0.024 nM; a Cell-fusion result for comparison (IC50) of 0.097 nM; an EC50, HeLa P4-CCR5/HeLa-Env-ADA cell fusion of 0.323 nM.

Turning to “NNY-P-Y3Chg-RANTES (4-68) (from UniProt P13501 25-91) (ligand)”, the Average infectivity IC50 (cell-free viral infection assay) was found to be 0.012 nM, the Cell-fusion result for comparison (IC50) was determined as 0.026 nM, the Mean Relative Potency (IC50 of cell fusion inhibition relative to AOP-RANTES = 100) (relative to AOP-RANTES = 100) was found to be 7 and the percentage fusion inhibition at the lowest dilution is more than 50%.

As to “aminooxypentane-RANTES (2-68), CH3-(CH2)4-O-N=CH-CO-RANTES (2-68) (from UniProt P13501 25-91) (ligand)”, the Average infectivity IC50 (cell-free viral infection assay) turned out to be 0.145 nM; the Cell-fusion result for comparison (IC50) turned out to be 0.48 nM; the EC50, HeLa P4-CCR5/HeLa-Env-ADA cell fusion was 1.81 nM; the Mean Relative Potency (IC50 of cell fusion inhibition relative to AOP-RANTES = 100) (relative to AOP-RANTES = 100) is 100.

Substance “NNY-P-Y3tbuA-RANTES (4-68) (from UniProt P13501 25-91) (ligand)” yielded an Average infectivity IC50 (cell-free viral infection assay) of 0.014 nM, a Cell-fusion result for comparison (IC50) of 0.038 nM, a Mean Relative Potency (IC50 of cell fusion inhibition relative to AOP-RANTES = 100) (relative to AOP-RANTES = 100) of 7 and a percentage fusion inhibition at the lowest dilution of more than 50%.

The substance “NNY-P2Thz-Y3Chg-RANTES (4-68) (from UniProt P13501 25-91) (ligand)” gave a Mean Relative Potency (IC50 of cell fusion inhibition relative to AOP-RANTES = 100) (relative to AOP-RANTES = 100) of 2 and a percentage fusion inhibition at the lowest dilution of more than 50%.

“NNY-P2Thz-Y3tButA-RANTES (4-68) (from UniProt P13501 25-91) (ligand)” came in with a Mean Relative Potency (IC50 of cell fusion inhibition relative to AOP-RANTES = 100) (relative to AOP-RANTES = 100) of 4 and a percentage fusion inhibition at the lowest dilution of more than 50%.

Substance “AOP-RANTES-K(palmitoyl)-G (from UniProt P13501 25-91) (ligand)” showed a Mean Relative Potency (IC50 of cell fusion inhibition relative to AOP-RANTES = 100) (relative to AOP-RANTES = 100) of 45.

Values taken from patent US20050089970A1.
